Results taken from article doi:10.1101/2020.12.04.411884 (bioRxiv, 2020).

Target: proteasome αΔ12-subunit (Thermoplasma acidophilum 20S proteasome α-subunit, first 12 residues removed) (Thermoplasma acidophilum, UniProt P25156 13-233)
Test: […]

Chain of proteasome αΔ12-subunit (Thermoplasma acidophilum 20S proteasome α-subunit, first 12 residues removed) (P25156 13-233, stated change not applied): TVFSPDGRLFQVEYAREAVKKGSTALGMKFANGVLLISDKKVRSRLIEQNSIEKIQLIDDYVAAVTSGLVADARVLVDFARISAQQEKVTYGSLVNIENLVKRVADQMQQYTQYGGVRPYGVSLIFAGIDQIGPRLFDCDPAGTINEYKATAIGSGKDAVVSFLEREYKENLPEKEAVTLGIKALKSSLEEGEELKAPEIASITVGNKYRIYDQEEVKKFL

B1: proteasome β-subunit (Thermoplasma acidophilum 20S proteasome) (natural protein)
chain: TTTVGITLKDAVIMATERRVTMENFIMHKNGKKLFQIDTYTGMTIAGLVGDAQVLVRYMKAELELYRLQRRVNMPIEAVATLLSNMLNQVKYMPYMVQLLVGGIDTAPHVFSIDAAGGSVEDIYASTGSGSPFVYGVLESQYSEKMTVDEGVDLVIRAISAAKQRDSASGGMIDVAVITRKDGYVQLPTDQIESRIRKLGLIL
binding result: binds
